Experimental data as given in the DeepSol protein solubility set.

assay: soluble on expression in E. coli; label from the status in PepcDB or PDB records

Sequence | soluble on expression in E. coli
MAHHHHHHMFYLFDEKAMSTNIKVKSVKRLVYNRHIKGDEAVLSLDLSYDMSKAFNWNLKQLFLYVLVTYETPEKVKNEVIIQDYIITNKNVAKRTYKNFITKYSLKDYNNGLRNNNINLQVCYKYMPIVGLSRSYEGTKISYKLPAEYFDNLPSNYPLYYPDK | not soluble
MKKIHMIPAALLIGSLALVSCAPSQPTQNAQTVSSVMTETPTYTSSSRSVESTAGTIAASEEATMTLLENSSGDPGSDSGGARYSLNSLKVSEQAAANAVLKAVLNDVSYQEFADSSYLEITGTPSADGTWGISFGGPSESASVEFSDGSISFSPVDMTVPATRLPQMGAFYETLTEEQLGMLETGLAVSTVDSSQQEMLLDLVSNSIGLADTETTATAISKIRATLSETYLFGTPDGLTLALSGPHVDFEVSHQGSTAKITYRDPSTDTLTAEDRVDTASVAAAPPEVVLEHHHHHH | not soluble
MGSDKIHHHHHHMNTYFDNATSSYPKPDAMRQALAYFYDVPVGSYGRSRDRETLRVTSEVEELRDALADLIGVSESAHICFADNATTGINTILRGSLQAGCSVLVSPMEHNAVMRPLQCLADTIGLKIALMPSMPDGRVDTDRLVSAIPTDTALAVVNLESNVNGLVQPIEEIARLLTQERGIPILADATQYLGTSRLKADELGLAYVAFTGHKGLLGPSGTGGFYIRDPRSVHPLTTGGNGLHSADWTVGVEMPERFMAGTVNVLGLTALLASVRQLPPFRISRDAWKQCMQQMQRFPGLRVYGAADPIEQGYLCSLTHDRLTPARIGDALYEAFDIVTRTGIHCAPLAHRSIGTFATGTVRLSLSPYHEEADLEYLLNALSHVLRS | not soluble
MKIALIQQKFHLNKEQTIKKTCEFIEEASKQGAELVCLGELHQSEYFCQSENVDFFDYANDYEKDVKFWANIARKNQIVLIASLFEKRSAGLYHNTAVVFEKDGSIAGKYRKMHIPDDPCFYEKFYFTPGDLGFEPINTSLGKLGVLICWDQWYPEAARIMALKGAEILIYPTAIGWFDKDKDEEKQRQLNAWLGVQKGHAIANGLYVVAINRVGFEKDVSGVEEGIRFWGNSFVFGPQGEELCLLDSQNECVKIIEIDKKRSENVRRWWPFLRDRRIEYFTDLTKRFID | soluble
MGSDKIHHHHHHMVLIRLRPCSAVEKDLIHACSPSASALVSKNEKAMKRFFLTTAILLSSVLASYADSLPSAVRDTVIRAGEKTIMIKDGEDDFEVIIQESMPSGDTIRNEKIFRGVYRNGRSIEQRFRNTLINRPNRDKEMPVWGTYGFGSFEWGELKVDDSHSDIGRSHSYRVSIQIFGDIYRLNKYLVLTYALGWDADIYRITDSKTLKNIDGVTTVVDVPGRAECTLTAAYLKAMPALAFNGVRSNLTVYIAPVLRAKVYSAATTDGPDGRLEKLRRVKLNTFSVEARAGINYRNAGIFFTYSLTPLFRSGKGPKLHPYTIGLSLSL | not soluble
MGSDKIHHHHHHVGCMKWDYGKMEPFRATGDGLFIMNEGNFQYGNATLSYYDPETKKVENEIFYRANAMKLGDVAQSMIVRDTIGWVVVNNSHVIFAISTNTFKEVGRITGLTSPRYIHFISDEKAYITQIWDYRIFIVNPKTYQITGYIECPDMTMETGSTEQMVQYGKYVYVNCWSYQNRILKIDTTTDKVVDQLTVGIQPTSLVMDKNFKMWTITDGGYKGSPYGYEEPSLYRIDAETFKIEKQFKFQLGDAPSEVQLNGAGDELYWINKDIWRMSVDEERVPVRPFLKYRDTKYYGLTVSPKNGDVYVADAIDYQQQGMIYRYTEDGELVDEFYVGIIPGAFCWK | not soluble
MGSDKIHHHHHHMTQAITMPDNPGADCIIEAGIVLTGLDAGSGLTGLGADGKMTMRHDVGIRVEKGMIAQIGPMEAVGYGNDHLPRFGSRRMIAMPGLVNAHHHFGVTPLMQGVPFAPLELWLPQFRAMRRIDQRLDTLYSAIEMLESGTTTVQHIHSGFSGTPDSWMQTAEATISAYGEIGMRLGYCFMIRDRNILSYEPDADILSRLPAKLRDWIAPQLAAADIPVPRLMEFYTDLRARFMKGSPQHIRMNLAPANLHWCSDNALQTIFETAKAAGGNVHMHLLETERQAEFARRTYGRSAVQHLQKLQCLDANVTLGHGNWMSGEDLDIIASCGCTICHNASSGLRLGSGIAPVNEMRRRGIPVALGIDQSNIADDRDMTLEMKLVWALHRETGLWNDRPDAGAVLQMASEHGAASAGFGGFTGRLEPGWQADIVLMDKDRIARPAINSRTPPVEALLHRGGRHAIEQVFVGGRLVVDGGRVTTVDRDAVMAEIEAILSRPETDAERYAWQAVETLLPHLESSLQQLGLGAGYRRYRYNSMSDQ | not soluble
MSYKAYPFFRDILINECIYFASKNKKLVRLNYKSEAYVGVWTEESVAVSFLTSRDIPFDKVVKMDVDRFATYELDELFDEQDHIIMNQTMEEEGHLLNVVAVTQEVMTELDKIRIKEFVQDVAKYDEVYGLTKKGSKQFILISENDSDEKKPHIMPVWSIKNRALKVRDEDFEECDLITIEGSVFGEWLDELRDDHKAVAIDLKTGVVGTIVSAQKLSNELTF | not soluble
GAMGIVGVGIDLVSIPDFAEQVDQPGTVFAETFTPGERRDASDKSSSAARHLAARWAAKEAVIKAWSGSRFAQRPVLPEDIHRDIEVVTDMWGRPRVRLTGAIAEYLADVTIHVSLTHEGDTAAAVAILEAP | soluble
MMTLIRITSADDSRLNRLIPLYEESFPESERRKIGQLKRMIENHAPMYFNAIECDGELSGMFVYWDMGDFYYLEHLAVFPEMRNKKIGQQVLDYVAEHLKGVRLLEVEPTEDEMTTRRVNYYRRNGYEVLDKTYVQPSYHALEDACPLWIMGSEDSPRLAEQVERIKEEVYRQQVG | not soluble
MGSDKIHHHHHHMSQAFLASENEQIKDYYEENGYVVVKNAVSLEKITDFINKYENFKISKNYYFRSQDTNRAEKLAINEKGFIERSILNPLELVYQKDFCRSSSNIICADSVSQILRTLTGKQKHTIWQTMFFDKSTGTVAHQDHYYLDSDPPGNLIACWYALEDIQEDAGAFFVVPKSHKGSVIPRKTDVPLFSDHEEYAKNIQKLINEQSYPIQPMLLEKGSVLFWHPYLIHGAFQNTNPKYSRKSFTAHFLPEGYSRLGISRVKPTVISTNPNILSWKKNLLHHAEASIRHWRYWLQVNLRPKSQRPYLEMRSSEYLDIK | not soluble
MSLASVDPYEHLNAWVSAIETSGVLVLATRGGKVAIDEMRGMCLYFDELPVIVLNGSDHPRPRLFSLLHEFVHVVLHTEGLCDVIADAHPSTQDRSLEARCNAIAAAVLMPADVVRARPEVIVRSETPSSWDYESLRPVAAHFGVSAEAFLRRLSTLGIVPVEVYRQRRAEFIAAHEDEAERARSAGGGNWYRNTVRDLGKGYVRAVTDAHRRRVIDSNTAAIYLDAKVSQIPKLAESAELRSVEGHHHHHH | not soluble
MHRSTFIRTSGTSSRTLTARYRSQYTGLLVARVLFSTSTTRAQGGNPRSPLQIFRDTFKKEWEKSQELQENIKTLQDASGKLGESEAYKKAREAYLKAQRGSTIVGKTLKKTGETMEHIATKAWESELGKNTRKAAAATAKKLDESFEPVRQTKIYKEVSEVIDDGESSRYGGFITKEQRRLKRERDLASGKRHRAVKSNEDAGTAVVATNIESKESFGKKVEDFKEKTVVGRSIQSLKNKLWDESENPLIVVMRKITNKVGGFFAETESSRVYSQFKLMDPTFSNESFTRHLREYIVPEILEAYVKGDVKVLKKWFSEAPFNVYAAQQKIFKEQDVYADGRILDIRGVEIVSAKLLAPQDIPVLVVGCRAQEINLYRKKKTGEIAAGDEANILMSSYAMVFTRDPEQIDDDETEGWKILEFVRGGSRQFT | not soluble
SNAMTQFAFVFPGQGSQSVGMLAEMAANYPIVEETFAEASAALGYDLWALTQQGPAEELNKTWQTQPALLTASVALWRVWQQQGGKMPALMAGHSLGEYSALVCAGVINFADAVRLVEMRGKFMQEAVPEGTGGMSAIIGLDDASIAKACEESAEGQVVSPVNFNSPGQVVIAGHKEAVERAGAACKAAGAKRALPLPVSVPSHCALMKPAADKLAVELAKITFSAPTVPVVNNVDVKCETDAAAIRDALVRQLYNPVQWTKSVEFIAAQGVEHLYEVGPGKVLTGLTKRIVDTLTASALNEPAALSAALTQ | soluble
MSDVIEQYFVKNEPYYRPVADEVKLYEAAYSVRMPMMLKGPTGCGKTRFVEYMAWKLGKPLITVACNEDMTASDLVGRFLLDAQGTRWQDGPLTTAARYGAICYLDEVVEARQDTTVVIHPLTDNRRVLPLEKKGELVGAHPDFQLVISYNPGYQSLMKDLKQSTKQRFGALDFNYPQHDIETEIVSHETGIDSAIADKLVSIAERARNLKGHGLDEGISTRMLIYAGNLIAKGVDVHAACRMALVRPITDDPDMRDALDAAVTTFFLEHHHHHH | soluble
MGSDKIHHHHHHMKIVYCIAGTYNSGGMERVLANKANYLVSHGYEVVIITTDQREKQSFFELDQRINCCDLRINYEENNGKSFLNKLANYPFKQWKHRKRLTACLKQLKADIVVSMFCNDASFLWKIDDGSKKVLEIHFSRYKRLQYGRKGVWKIADRWRSRMDERTVRKYDRFVVLTAEDKAYWGNLSNMIVIPNALSHSTTELHLSPLTARKVIAIGRYGYQKGFDYLIEAWEIIHCAQPAWTLDIIGDGEWTDRLQRQIKRKRLNHCVFLKPPTGQIEEEYRQASLLVLSSRYEGLPMVLLEAQSFGLPIVSFACKCGPGDVITDGKNGFLVSVGNLPMLADRIMRLMEDEGLRKRMGMNAYHNSKTFSEERIMQCWIDMFDKLVSQR | not soluble
MGSDKIHHHHHHMNADDIRAMIQPAQVHRDVYISDAVYRLEMRHLFTNAWIFVGHDSQTPNKGDYITTQVGDQPVIMVRHTDGEVKVLYNRCPHKGTKIAIDRAGNTGKFFRCPYHAWSFKTDGCLLAIPLKKGYEGTGLSESQNGKGMQAVGAVYNYRGFVFARLAEDGIGFDEFFGGSLSSIDNMVDRAPEGRVEISGPPLRYMHKCNWKMLVENQTDTCHPMVAHESSAGTAVKIYEQMGNPEPRPPAMQIIAPFMSPYEFFEDMGIRTWPNGHGHTGVNMSIHSNYDAIPGYFEAMIESHGEERAKAILDESRHNTVYFPNVMVKAPLTQLRNFIPLGADRTLAESYVYRLVGAPEQLTAMSAMYNRMINAPTSIVGHDDLEMYERAQEGLHAEGMQWVDIRRLHTGPENFETEAVENGTTERQMRNQFHAWAKFMTMSMEDAPGVAAQ | not soluble
MLIKLTGGTVYDPANGIDGQVRNLFIRDGRIVHSLNGATPDQEYDLRGKVVMAGAIDMHTHIGGGKVTIARNLLPEDHRADPEPRRGLMRAGCGHAAPSTLTTGYRYAEMGYTAGFEPAVLPINARQAHMEMADVPLLDVGGYVMLGSDDFFLRLLSAGSDQKLINDYVAWTIRSAKAIGIKVVNPGGISAFKFNQRMLDLDEKHVYYGVTPRQILKSLARAVHELGVPHPLHVHGCNLGVPGNVETTLNTISGIEGLPMHLTHIQFHSYGVEGDRKFSSGAARIAEAINANKNITIDVGQILFGQTVTASGDSMRQHANAGHAHPDKWVCMDIECDAGCGVVPFKYRDKNFVNALQWCIGLETFLLIDDPWRVFLTTDHPNGAPFTTYPHLIRLLMDKSFRNDMLATINPEAAALSTLGSIDREYSLYEIAIMTRAGAARLLGLTDRGHLGAGAAADITVYTDQADKEKMFTRPDYVFKDGELVVRNGEVVKVVWGNLHTVQPEFDNGIEARLRDYFDRYHTMKLDNFVINDWEIEGDGRSKILVHPCHQGTRSLEHHHHHH | not soluble
MGSDKIHHHHHHMVEELLGKALARKRSLRKDETIDVFNRVTYFFPKDFVITNYPRNPVAVFNPGAVLVGKALHVFPRLIFDYYKYVSSIGHFIVNIDDLLNGEVKKPLEMEVVFWPRDIQEFLGCEDPRVFFRNSRFELLYTAKGYKDWSQEGKPHTDFLAYAVLDEDLNLIEKRYISIKSTLGEYVPVSMKDSSFVESKVILTRLTVGDAKVCWRGRLEGSYIDLYSLDPVFFPEEWETKVGWSTNTVEVKEGYLVGWHAVLKDLTYKNGLALVDGRGRLLGTTNYVLSPKGVIEEYGDRIRVIFGCGLVVYGGRVIWIGGVSDWAIGVFETSEREIMNLMKEAT | not soluble
